Activity data for 1 substance are collected here from patent publication US9290800.

For the data set, the target named is T1, M2Y DNA polymerase-His10 (polymerase A) (Bacteriophage M2Y) (UniProt P19894).
T1 sequence: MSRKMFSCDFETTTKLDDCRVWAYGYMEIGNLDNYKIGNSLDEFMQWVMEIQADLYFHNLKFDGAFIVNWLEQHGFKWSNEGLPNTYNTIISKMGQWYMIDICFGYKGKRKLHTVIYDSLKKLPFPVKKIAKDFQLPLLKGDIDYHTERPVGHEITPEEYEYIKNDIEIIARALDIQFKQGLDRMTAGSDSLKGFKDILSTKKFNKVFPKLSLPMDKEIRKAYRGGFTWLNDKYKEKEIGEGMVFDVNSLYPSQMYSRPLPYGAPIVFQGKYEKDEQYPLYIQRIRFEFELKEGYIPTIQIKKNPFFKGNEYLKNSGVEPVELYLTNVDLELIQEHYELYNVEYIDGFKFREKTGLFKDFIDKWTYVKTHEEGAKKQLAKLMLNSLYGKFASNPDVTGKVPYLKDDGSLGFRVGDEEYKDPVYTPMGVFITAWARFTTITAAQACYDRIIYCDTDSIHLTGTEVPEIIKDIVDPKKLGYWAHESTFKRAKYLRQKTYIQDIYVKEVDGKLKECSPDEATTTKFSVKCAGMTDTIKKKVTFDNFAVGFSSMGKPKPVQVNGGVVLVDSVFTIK
Particulars: average amplification per round over two rounds.

In turn, FMR1 genomic fragment SMRTbell came in with an activity of 177 fold.
